The numbers were not newly measured in PMC6935268, which cites them from elsewhere.

pKd: −log10 of the molar value.

A word on the pKd: it is −log10 of the Kd, conventionally taken in molar units.

In this data set the target is CD80 (Homo sapiens) (UniProt P33681).
Chain of UniProt P33681 (P33681 35-242): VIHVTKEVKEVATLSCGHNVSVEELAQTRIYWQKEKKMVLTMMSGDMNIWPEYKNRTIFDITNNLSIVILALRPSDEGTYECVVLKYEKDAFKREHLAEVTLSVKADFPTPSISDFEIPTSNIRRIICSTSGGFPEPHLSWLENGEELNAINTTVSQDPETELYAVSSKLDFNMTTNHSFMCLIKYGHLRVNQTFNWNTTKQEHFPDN

PD-L1 (from UniProt Q9NZQ7): the pKd was 4.75.
